Test results taken from US12485179B2, “Cholecystokinin B receptor targeting for imaging and therapy” (Purdue Research Foundation, priority 2012, dated 2025).

How the values were obtained:
HEK CCK2i4svR tumors = test: In vivo radio-imaging and bio-distribution, HEK CCK2i4svR tumor xenografts; set-up: species or system nu/nu mice
Protocol: In order to test the in vivo specificity of CRL-3 chelated with ^99mTc, HEK CCK2R and CCK2i4svR subcutaneous tumors were produced in nude mice according to known methods. Athymic female nu/nu mice were purchased from Harlan Laboratories and maintained on normal rodent chow and housed in a sterile environment on a standard 12 hour light and dark cycle for the duration of the study. All animal procedures were approved by the Purdue Animal Care and Use Committee in accordance with NIH guidelines.
150 microcurie of CRL-3 ^99mTc was injected intravenously into each mouse. FIGS. 3A-B show an overlay of whole-body radio-images on white light photographs of mice bearing images of HEK CCK2R (a, b) and HEK CCKRi4sv (c, d) tumor xenografts in nu/nu mice two hours after the administration of CRL-3 ^99mTc. Kidneys were shielded with a lead plate. Mice a and c had the radioactive conjugate administered along with 100 fold of free unlabeled targeting ligand. In mice b and d, only the radio-conjugate CRL-3 ^99mTc was administered. Arrows indicate location of the tumor.
Following the above radio-imaging studies, animals were dissected and selected organs/tissues were collected into pre-weighed γ-counter tubes. Radioactivity of weighed tissues and test compounds were counted in a γ-counter. CPM values were decay corrected and results were calculated as % injected dose per gram of wet tissue (% ID/g). […]

CCK2i4svR = target: T1, CCK2i4svR (Homo sapiens, UniProt P32239); test: Binding of 99mTc conjugates to HEK CCK2i4svR cells (cell bound radioactivity)
T1 construct: expressed in transfected cells; host or cells: HEK-293, G418-selected, from Dr. Mark Hellmich (University of Texas at Galveston)
T1 sequence (P32239 1-516 isoform P32239-2): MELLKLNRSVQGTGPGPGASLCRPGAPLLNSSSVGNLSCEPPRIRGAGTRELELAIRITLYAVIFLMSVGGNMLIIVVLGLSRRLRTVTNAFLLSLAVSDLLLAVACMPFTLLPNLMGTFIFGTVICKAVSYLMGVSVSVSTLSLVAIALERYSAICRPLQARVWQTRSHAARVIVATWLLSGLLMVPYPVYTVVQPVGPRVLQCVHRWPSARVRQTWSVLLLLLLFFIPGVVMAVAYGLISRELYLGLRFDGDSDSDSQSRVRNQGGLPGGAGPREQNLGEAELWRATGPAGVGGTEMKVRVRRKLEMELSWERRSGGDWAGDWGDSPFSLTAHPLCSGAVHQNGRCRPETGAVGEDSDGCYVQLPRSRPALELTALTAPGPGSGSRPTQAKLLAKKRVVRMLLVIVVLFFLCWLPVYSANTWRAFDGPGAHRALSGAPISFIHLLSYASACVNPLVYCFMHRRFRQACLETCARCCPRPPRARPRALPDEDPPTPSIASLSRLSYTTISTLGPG
Protocol: (§1) CRL-1, CRL-2, CRL-3 and CRL-4 were chelated to ^99mTc and tested for binding using two transfected cell lines of HEK-CCK2R (HEK-293 CCK2R) and HEK-CCK2R splice cell line (HEK CCK2i4svR), obtained from Dr. Mark Hellmich (University of Texas at Galveston). Cells were cultured in Dulbecco's modified Eagles (Gibco) supplemented with 10% Fetal Bovine Serum and G418 disulfate (SIGMA; 400 μg/ml), 1% penicillin/streptomycin at 37° C. in a humidified 95% air, 5% CO2 atmosphere.
(§2) Competition studies were performed using 100 fold excess of free Z-360 containing corresponding peptide linker and no chelating moiety. HEK 293 CCK2R and HEK CCK2i4svR were seeded onto 24 well plates and allowed to become confluent over 48-72 hours. Spent medium in each well was replaced with 0.5 ml fresh media containing 0.5% BSA and increasing concentrations of the test article. After incubating for 1 h at 37° C. cells were rinsed with incubation solution (2×1.0 ml) to remove any unbound radioactivity. Cells were then resuspended on 0.5 ml 0.25N NaOH and cell radioactivity was counted using a γ-counter. The dissociation constant (KD) was calculated using a plot of cell bound radioactivity versus the concentration of the radiotracer using Graphpad Prism 4 and assuming a non-cooperative single site binding equilibrium.

CCK2R = target: T2, CCK2R (Homo sapiens, UniProt P32239); test: Binding of 99mTc conjugates to HEK-293 CCK2R cells (cell bound radioactivity); set-up: expressed in transfected cells; host or cells: HEK-293, G418-selected, from Dr. Mark Hellmich (University of Texas at Galveston)
T2 sequence (P32239 1-447): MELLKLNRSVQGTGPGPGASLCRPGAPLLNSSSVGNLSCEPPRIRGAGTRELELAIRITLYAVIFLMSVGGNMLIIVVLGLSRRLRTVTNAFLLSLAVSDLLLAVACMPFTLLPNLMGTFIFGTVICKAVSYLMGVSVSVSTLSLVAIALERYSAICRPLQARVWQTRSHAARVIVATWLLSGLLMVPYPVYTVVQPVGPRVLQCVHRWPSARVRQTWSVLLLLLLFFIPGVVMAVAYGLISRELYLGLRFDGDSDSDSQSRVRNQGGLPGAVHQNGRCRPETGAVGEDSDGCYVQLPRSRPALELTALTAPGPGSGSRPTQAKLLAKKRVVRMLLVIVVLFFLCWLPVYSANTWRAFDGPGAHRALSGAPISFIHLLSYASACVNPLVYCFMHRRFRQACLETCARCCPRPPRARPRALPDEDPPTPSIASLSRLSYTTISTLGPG
Protocol: as §1, §2

CC(C)(C)C(=O)CN1C(=O)[C@H](NC(=O)Nc2cccc(C(=O)NCCCCCCCC(=O)N[C@H](CCC(=O)O)C(=O)N[C@H](CCC(=O)NC[C@H](O)[C@@H](O)[C@H](O)[C@H](O)CO)C(=O)N[C@H](CCC(=O)O)C(=O)N[C@H](CCC(=O)NC[C@H](O)[C@@H](O)[C@H](O)[C@H](O)CO)C(=O)NC[C@@H]3[NH][99Tc]45[S]C[C@@H](C(=O)O)[N]4C(=O)[C@H](CC(=O)O)[N]5C3=O)c2)CN(C2CCCCC2)c2ccccc21 (stereo partly shown) [CRL-3 ^99mTc]
accumulation of radio-conjugate, whole-body radio-image (HEK CCK2i4svR tumors; 150 microcurie i.v., two hours after administration, kidneys shielded): accumulated mainly in the receptor expressing tumor with little or no accumulation in other tissues except the kidney | bio-distribution of radiotracer in organs/tissues (HEK CCK2i4svR tumors; after radio-imaging, n=5 mice/group): only the tumor and kidneys show excessive accumulation of radiotracer | Kd (CCK2i4svR): 4 nM | Kd (CCK2R): 30 nM
